The results in this text go back to patent US20060015973, “Environmental stress-tolerant plants” (Independent Admin. Institute, Japan International Research …, published 2006).

The target of series [1] is T1, GST-DREB1A (fragment encoded by cDNA nt 119-547) (Arabidopsis thaliana, UniProt Q9M0L0 SEQ:1-143). As to the kind of experiment: EMSA; room temperature 20 min; 6% gel 0.25x TBE. As to conditions: tags: N-terminal GST (pGEX-4T-1), E. coli JM109; label: 32P. As to the method:
(§1) E. coli in which the fusion protein had been induced was suspended in 13 ml of buffer (10 mM Tris-HCl, 0.1 mM DTT, 0.1 mM phenylmethylsulfonyl fluoride). Then, 1% Triton X-100 and 1 mM EDTA were added thereto. After the cells were disrupted by sonication, the disrupted material was centrifuged at 22,000×g for 20 min. Then, the fusion protein of DREB1A (or DREB2A) and GST was purified by affinity chromatography using glutathione-Sepharose (Pharmacia) as a carrier. The resultant fusion protein was incubated with the DRE-containing 71 bp DNA fragment probe prepared by PCR and radiolabelled with ³²P at room temperature for 20 min. This mixture was electrophoresed using 6% acryl amide gel containing 0.25× Tris-borate-EDTA at 100 V for 2 hr. […] As is clear from this Figure, a band which migrated behind was detected when the fusion protein was incubated with the DRE-containing 71 bp DNA fragment probe (SEQ ID NO: 18). When a DNA fragment containing a varied DRE sequence (SEQ ID NO: 19, 20 or 21) was used, such a band was not detected. On the other hand, when a DNA fragment which was partly varied outside of DRE sequence (SEQ ID NO: 22 or 23) was used as a probe, a behind band was detected. Thus, it was shown that DREB1A or DREB2A protein specifically bound to DRE sequence.

The target in series [2] is T2, GST-DREB2A (fragment encoded by cDNA nt 167-666) (Arabidopsis thaliana, UniProt O82132 SEQ:1-166). The experiment in a line: EMSA; room temperature 20 min; 6% gel 0.25x TBE. As to conditions: tags: N-terminal GST (pGEX-4T-1), E. coli JM109; label: 32P. The protocol: as §1
T2 sequence (O82132 1-166): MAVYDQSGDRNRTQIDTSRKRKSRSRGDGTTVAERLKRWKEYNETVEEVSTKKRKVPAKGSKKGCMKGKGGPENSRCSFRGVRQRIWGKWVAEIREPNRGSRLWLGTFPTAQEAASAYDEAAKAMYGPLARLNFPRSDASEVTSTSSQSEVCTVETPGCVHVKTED
Background: Mobility shift assays separate free from complexed probe on a gel.

The target of series [3] is T1, GST-DREB1A (fragment encoded by cDNA nt …). As to the kind of experiment: EMSA; shifted band. As to conditions: tags: N-terminal GST (pGEX-4T-1), E. coli JM109; label: 32P. As to the method: as §1
Series [4] addresses T2, GST-DREB2A (fragment encoded by cDNA nt …). As to the kind of experiment: EMSA; shifted band. The conditions noted are these: tags: N-terminal GST (pGEX-4T-1), E. coli JM109; label: 32P. The protocol:
as §1

The target of series [5] is T1, GST-DREB1A (fragment encoded by cDNA nt …). The experiment in a line: EMSA; no shifted band. As to conditions: tags: N-terminal GST (pGEX-4T-1), E. coli JM109; label: 32P. The protocol:
as §1

For series [6], the target named is T2, GST-DREB2A (fragment encoded by cDNA nt …). The experiment in a line: EMSA; no shifted band. As to conditions: tags: N-terminal GST (pGEX-4T-1), E. coli JM109; label: 32P. The protocol:
as §1

Series [7] has as its target DREB2A delta136-165 (constitutive active form) (Arabidopsis thaliana, UniProt O82132 SEQ:1-335, del136-165). As to the kind of experiment: cell_activity; GUS transactivation vs basal, T87 protoplasts; >3x full length. The protocol:
Isolation of Arabidopsis T87 cell protoplasts and polyethylene glycol-mediated DNA transfection were performed as described previously (Abel and Theologis, 1994 Plant J. 5, 421-427). Five-day-old Arabidopsis T87 suspension cultured cells were collected by filtration and washed with water. Five grams of T87 cells were incubated with enzyme solution (0.4M mannitol, 5 mM MES-KOH (pH 5.7), 8 mM CaCl₂, 1% [w/v] Cellulase ONOZUKA R10 (Yakult), 0.5% [w/v] Macerozyme R10 (Yakult)) at room temperature for 2 hours with gentle agitation. Cells were passed through 125 μm nylon mesh, recovered by centrifugation at 450 g for 5 minutes at room temperature and washed twice in 30 ml of […], 70 mM CaCl₂, and 5 mM MES-KOH (pH 5.7). Finally protoplasts were resuspended in MaMg solution (0.4 M mannitol, 15 mM MgCl₂, 5 mM MES-KOH (pH 5.7)) and concentration was adjusted to 3×10⁶ cell/ml. The isolated protoplasts were kept on ice until use. Plasmid DNAs used for protoplast transformation were prepared by using a QINGEN plasmid isolation kit (QIAGEN) and dissolved in 10 mM Tris-HCl (pH 8.0), and 1 mM EDTA at 1 μg/μL. One hundred μL of protoplast suspension was mixed well with 10 μL of effector plasmid, 10 μL of reporter plasmid and 5 μL of 35S:Luciferase internal control plasmid. […]

Positions count from the first letter of the chain named.

T1 sequence (Q9M0L0 1-143): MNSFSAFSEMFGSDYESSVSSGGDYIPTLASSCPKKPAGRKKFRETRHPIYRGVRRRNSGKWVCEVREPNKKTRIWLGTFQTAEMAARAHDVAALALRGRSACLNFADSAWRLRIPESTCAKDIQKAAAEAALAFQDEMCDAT
Sequence of DREB2A delta136-165 (constitutive active form) (O82132 other isoform, or with tags, fused parts or gaps del136-165 | mutant): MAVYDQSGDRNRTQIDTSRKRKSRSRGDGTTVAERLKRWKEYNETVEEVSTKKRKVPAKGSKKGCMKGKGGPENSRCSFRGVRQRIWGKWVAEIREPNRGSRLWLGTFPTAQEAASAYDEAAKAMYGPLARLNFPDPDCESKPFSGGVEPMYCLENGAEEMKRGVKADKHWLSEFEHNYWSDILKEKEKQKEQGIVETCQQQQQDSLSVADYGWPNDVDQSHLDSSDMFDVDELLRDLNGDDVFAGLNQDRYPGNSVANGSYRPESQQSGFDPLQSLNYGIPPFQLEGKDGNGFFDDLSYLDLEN

B1: rd29A promoter 71 bp DRE probe (wild type) (dsDNA)
DNA 1: CAGTTTGAAAGAAAAGGGAAAAAAAGAAAAAATAAATAAAAGATATACTACCGACATGAGTTCCAAAAAGC
DNA 2: GCTTTTTGGAACTCATGTCGGTAGTATATCTTTTATTTATTTTTTCTTTTTTTCCCTTTTCTTTCAAACTG
Consider B1, for which the binding result in series [1] and in series [2] was “binds” each time.

B2: 71 bp probe, mutated outside DRE (SEQ 22) (dsDNA)
DNA 1: B1 DNA 1 with G60T, T61C, T62A, C63A
DNA 2: B1 DNA 2 with G9T, A10T, A11G, C12A
B2: the binding result in series [3] and in series [4] was “binds” throughout.

B3: 71 bp probe, DRE mutant (SEQ 21) (dsDNA)
DNA 1: B1 DNA 1 with T57A, G58A
DNA 2: B1 DNA 2 with C14T, A15T
As to B3, the binding result in series [5] and in series [6] was “no binding” each time.

B4: DRE-containing 71 bp rd29A region in GUS reporter (3 tandem copies) (dsDNA)
DNA 1: B1 DNA 1
DNA 2: B1 DNA 2
Regarding B4, the activity in series [7] was greater than 30 fold.

B5: 71 bp probe, mutated outside DRE (SEQ 23) (dsDNA)
DNA 1: B1 DNA 1 with C64G, A65G, A66T, A67T
DNA 2: B1 DNA 2 with T5A, T6A, T7C, G8C
As for B5, the binding result in series [3] and in series [4] was “binds” throughout.

B6: 71 bp probe, DRE mutant (SEQ 20) (dsDNA)
DNA 1: B1 DNA 1 with C52T, G53T, A54T, C55T
DNA 2: B1 DNA 2 with G17A, T18A, C19A, G20A
Consider B6, for which the binding result in series [5] and in series [6] was “no binding” in each case.

B7: 71 bp probe, DRE mutant (SEQ 19) (dsDNA)
DNA 1: B1 DNA 1 with C48T, A50T, C51T
DNA 2: B1 DNA 2 with G21A, T22A, G24A
As to B7, the binding result in series [5] and in series [6] was “no binding” in each case.
